In IntAct's records for PubMed 15385968:

B1: DNA repair protein XRCC4 (Homo sapiens), Q13426 (parent)
chain: MERKISRIHLVSEPSITHFLQVSWEKTLESGFVITLTDGHSAWTGTVSESEISQEADDMAMEKGKYVGELRKALLSGAGPADVYTFNFSKESCYFFFEKNLKDVSFRLGSFNLEKVENPAEVIRELICYCLDTIAENQAKNEHLQKENERLLRDWNDVQGRFEKCVSAKEALETDLYKRFILVLNEKKTKIRSLHNKLLNAAQEREKDIKQEGETAICSEMTADRDPVYDESTDEESENQTDLSGLASAAVSKDDSIISSLDVTDIAPSRKRRQRMQRNLGTEPKMAPQENQLQEKENSRPDSSLPETSKKEHISAENMSLETLRNSSPEDLFDEI

Variants of: B1
Details: with pnkp_human PNKP

Variant	effect of a mutation on the interaction
T233A	disrupting interaction
